# Laboratory results from PMC5454391, “Improving 10-deacetylbaccatin III-10-β-O-acetyltransferase catalytic fitness for Taxol production” (Nature Communications, 2017).
# Substrate: [H][C@]12[C@H](OC(=O)c3ccccc3)[C@]3(O)C[C@H](OC(=O)[C@H](O)[C@@H](NC(=O)c4ccccc4)c4ccccc4)C(C)=C([C@@H](O)C(=O)[C@]1(C)[C@@H](O)C[C@@]1([H])OC[C@@]21OC(C)=O)C3(C)C
# Assay: purified protein
# Conditions: acetyl-CoA 2,000 μM (saturating), 50 mM sodium acetate pH 5.5, 37.5 °C, 180 min
Protein,Km,Vmax [µM/min],kcat [s⁻¹],kcat/Km [M⁻¹ s⁻¹]
DBAT (recombinant DBAT of T. cuspidata) (Taxus cuspidata) (protein) MAGSTEFVVRSLERVMVAPSQPSPKAFLQLSTLDNLPGVRENIFNTLLVYNASDRVSVDPAKVIRQALSKVLVYYSPFAGRLRKKENGDLEVECTGEGALFVEAMADTDLSVLGDLDDYSPSLEQLLFCLPPDTDIEDIHPLVVQVTRFTCGGFVVGVSFCHGICDGLGAGQFLIAMGEMARGEIKPSSEPIWKRELLKPEDPLYRFQYYHFQLICPPSTFGKIVQGSLVITSETINCIKQCLREESKEFCSAFEVVSALAWIARTRALQIPHSENVKLIFAMDMRKLFNPPLSKGYYGNFVGTVCAMDNVKDLLSGSLLRVVRIIKKAKVSLNEHFTSTIVTPRSGSDESINYENIVGFGDRRRLGFDEVDFGWGHADNVSLVQHGLKDVSVVQSYFLFIRPPKNNPDGIKILSFMPPSIVKSFKFEMETMTNKYVTKP,0.546 (±0.029) mM,0.204,0.000334,0.611
DBAT (recombinant DBAT of T. cuspidata) (Taxus cuspidata; F301V) (protein) MAGSTEFVVRSLERVMVAPSQPSPKAFLQLSTLDNLPGVRENIFNTLLVYNASDRVSVDPAKVIRQALSKVLVYYSPFAGRLRKKENGDLEVECTGEGALFVEAMADTDLSVLGDLDDYSPSLEQLLFCLPPDTDIEDIHPLVVQVTRFTCGGFVVGVSFCHGICDGLGAGQFLIAMGEMARGEIKPSSEPIWKRELLKPEDPLYRFQYYHFQLICPPSTFGKIVQGSLVITSETINCIKQCLREESKEFCSAFEVVSALAWIARTRALQIPHSENVKLIFAMDMRKLFNPPLSKGYYGNVVGTVCAMDNVKDLLSGSLLRVVRIIKKAKVSLNEHFTSTIVTPRSGSDESINYENIVGFGDRRRLGFDEVDFGWGHADNVSLVQHGLKDVSVVQSYFLFIRPPKNNPDGIKILSFMPPSIVKSFKFEMETMTNKYVTKP,0.178 (±0.017) mM,0.242,0.000396,2.22
DBAT (recombinant DBAT of T. cuspidata) (Taxus cuspidata; F301V/G38R) (protein) MAGSTEFVVRSLERVMVAPSQPSPKAFLQLSTLDNLPRVRENIFNTLLVYNASDRVSVDPAKVIRQALSKVLVYYSPFAGRLRKKENGDLEVECTGEGALFVEAMADTDLSVLGDLDDYSPSLEQLLFCLPPDTDIEDIHPLVVQVTRFTCGGFVVGVSFCHGICDGLGAGQFLIAMGEMARGEIKPSSEPIWKRELLKPEDPLYRFQYYHFQLICPPSTFGKIVQGSLVITSETINCIKQCLREESKEFCSAFEVVSALAWIARTRALQIPHSENVKLIFAMDMRKLFNPPLSKGYYGNVVGTVCAMDNVKDLLSGSLLRVVRIIKKAKVSLNEHFTSTIVTPRSGSDESINYENIVGFGDRRRLGFDEVDFGWGHADNVSLVQHGLKDVSVVQSYFLFIRPPKNNPDGIKILSFMPPSIVKSFKFEMETMTNKYVTKP,0.424 (±0.133) mM,0.918,0.0015,3.54
DBAT (recombinant DBAT of T. cuspidata) (Taxus cuspidata; G38R) (protein) MAGSTEFVVRSLERVMVAPSQPSPKAFLQLSTLDNLPRVRENIFNTLLVYNASDRVSVDPAKVIRQALSKVLVYYSPFAGRLRKKENGDLEVECTGEGALFVEAMADTDLSVLGDLDDYSPSLEQLLFCLPPDTDIEDIHPLVVQVTRFTCGGFVVGVSFCHGICDGLGAGQFLIAMGEMARGEIKPSSEPIWKRELLKPEDPLYRFQYYHFQLICPPSTFGKIVQGSLVITSETINCIKQCLREESKEFCSAFEVVSALAWIARTRALQIPHSENVKLIFAMDMRKLFNPPLSKGYYGNFVGTVCAMDNVKDLLSGSLLRVVRIIKKAKVSLNEHFTSTIVTPRSGSDESINYENIVGFGDRRRLGFDEVDFGWGHADNVSLVQHGLKDVSVVQSYFLFIRPPKNNPDGIKILSFMPPSIVKSFKFEMETMTNKYVTKP,0.368 (±0.061) mM,0.499,0.000815,2.22
